Source: PMC9107221 (Journal of Nanobiotechnology, 2022)
Changes are numbered by the printed parent chain.

T1: P10-LKIQVSLQIG (Chikungunya virus, SL-CK1)
T1 construct: 10-mer of the Chikungunya/SL-CK1 E2 glycoprotein, residues 46 to 55, domain A
T1 chain: LKIQVSLQIG

T2: P61-GEEPNYQEEW (Chikungunya virus, SL-CK1)
T2 construct: 10-mer of the Chikungunya/SL-CK1 E2 glycoprotein, domain C; printed as residues 331 to 340 in the results and as 301-310 in the discussion
T2 chain: GEEPNYQEEW

B1: Chikungunya/SL-CK1 E2 glycoprotein (natural protein)
chain: not shown
notes: E2 glycoprotein of Chikungunya virus strain SL-CK1, recombinant, about 40 kD on the blot; also called CHIKV E2; E2 protein; source: bought: Sino Biological
B2: MoNb-3C5 (VHH)
VHH: AVQLVESGGGLVQAGGSLRLSCAASGRSFSAYTMAWFRQAPGKEREWMASIVRSGGPTYYADSVKDRFTISRENARNTAYLQMNSLKPEDTAVYYCAADLGWTYSRSPELFGSWGQGTQVTVSS
notes: About 28 kDa with the His-SUMO tag; detected through SUMO (anti-SMT3) or the His tag; also called monovalent VHH antibody Nb-3C5; SUMO-tagged VHH; not shown: His6, N-terminal, kept; SUMO, N-terminal, kept
B3: MoNb-2E8 (VHH)
VHH: B2 VHH with A79V, P108R
notes: About 28 kDa with the His-SUMO tag; detected through SUMO (anti-SMT3) or the His tag; also called monovalent VHH antibody Nb-2E8; SUMO-tagged VHH; not shown: His6, N-terminal, kept; SUMO, N-terminal, kept
B4: 3E9 (Nb-3E9) (VHH)
VHH: AVQLVESGGGLVQAGGSLSLSCAASGRTFSAGTMGWFRQAPGKERELIARVIKNGGSTYYTDSVKGRFTIAADFAKSTVYLQMNSLKPEDTALYYCAADRGAVFGTRQELYDDWGQGTQVTVSS
B5: 4C7 (Nb-4C7) (VHH)
VHH: AVQLVESGGGLVQAGGSLRLSCATSGRTLGTYGWFRQAPGKEREFVARFLRNNGLTEYADSVKGRFTISRDDAKNTVELQMIMLKPEDTAVYYCTADPDAVYSRSPALWVYWGQGTQVTVSS
B6: 1H7 (Nb-1H7) (VHH)
VHH: AVQLVESGGGLVQAGGSLRISCLASGPPFTDYTMGWFRQAPGKEREFVARITNHGGGTHYADSVKGRFTISRDYATNTVYLQMNSLKPEDTAVYYCAADRGAVYGTREDLYDYWGQGTQVTVSS
B7: 4H6 (Nb-4H6) (VHH)
VHH: B6 VHH with A14P, R19G, L23V, M34L, D73E
B8: 4F8 (Nb-4F8) (VHH)
VHH: AVQLVESGGGTAQAGGPLRLSCKASGRSFSVGTMAWFRQVPGKEREFLVRDSQKGDGTVYAGSVEGRFTISRDYAKNTMDLQMNSLKPEDTAVYYCAADRGTVYGTREDLYDYWGQGTQVTVSS
B9: 1E1 (Nb-1E1) (VHH)
VHH: AVQLVESGGGLVETGESLRLSCAASGRTIENYHVGWFRQTSGPEREFLAATSRGNGISTIADSVKGRFTISRDNAKNTVYLQMNALKPEDTAVYICAADDANFVNYRSYRAWDNWGQGTQVTVSS
B10: 2B5 (Nb-2B5) (VHH)
VHH: B9 VHH with E13Q, T14A, E16G
B11: 2A3 (Nb-2A3) (VHH)
VHH: AVQLVESGGGLVPTGGSLRLSCTASGRTDNLYTVGWFRQAPGKERELIARITEKGGPTYYADSVKGRFSISTHKSKNAIYLQMNSVKPEDTAVYYCVADRGTVYGTREDLYDYWGQGTQVTVSS
B12: 2F7 (Nb-2F7) (VHH)
VHH: AVAGESGGGVVQAGGSLRLSCAASGRTFSPYAMGWFRQAPGKERESVAAISWSAGDTYYADSVKGRFTISRDNAKNTVYLQMNSLKPEDTAVYYCASRNTYFSDSGYSNFYAYDYWGQGTQVTVSS
B13: 1G6 (Nb-1G6) (VHH)
VHH: AVQLVESGGGLVQAGGSLRLSCAASGRTFSTYTMGWFRQAPGKEREFVARIIENTGNIYYADSVKGRFTISEDNAKNTLYLQMNNLKPEDTAVYYCVGDRGAVYGTRPDLYDHWGQGTQVTVSS
B14: 1H3 (Nb-1H3) (VHH)
VHH: AVQLVESGGGLVQAGGSLRLSCAASVHTFTMPTMGWFRQAPGKGRELVARFNANINSTYYGDSVKGRFTISRDFAKNTVYLHMSSLRPEDTAVYYCVADRGVVFGTREDLYDYWGQGTQVTVSS
B15: 4C1 (Nb-4C1) (VHH)
VHH: B14 VHH with G42E, V103F
B16: 1D1 (Nb-1D1) (VHH)
VHH: AVQLVESGGGLVQAGGSLRLSCEASGHTFSSGTMGWFRQAPGMEREFVARINEKGDGTFYADSVKGRFTISRDYAKNTVYLQMNTLKPEDTAVYYCVADRGTVYGTREDLYDYWGQGTQVTVSS
B17: 4G10 (Nb-4G10) (VHH)
VHH: B16 VHH with S30N, A75T
B18: 1C11 (Nb-1C11) (VHH)
VHH: AVQLVESGGGLVLAGASLRLSCADSGSGRSLGTYGWFRQAPGKEREFVARISQRGGIDYTDSVKGRFTISRDNSKNTVNLQMTTLTPEDTAVYYCAADPDTVYSRSPALWKYWGQGTQVTVSS
B19: 1A12 (Nb-1A12) (VHH)
VHH: AVQLVESGGGLVQAGGSLRLSCAASGRALTSGTMGWFRQAPGKEREFVARANVKGDGTFYADAVKGRFTISRDYAKNTVYLQMNNLKPEDTAVYFCAADRGTVYGTSEDLYDYWGQGTQVTVSS
B20: 1F1 (Nb-1F1) (VHH)
VHH: B2 VHH with A79V
B21: 2B4 (Nb-2B4) (VHH)
VHH: B2 VHH with F29S, A79V

Target: T3, TriNb-3C5 (alpaca)
T3 construct: VHH Nb-3C5, as the VHH of m2; flexible linker, printed as (GGGGS) x 3; VHH Nb-3C5, second copy, as the VHH of m2; VHH Nb-3C5, third copy, as the VHH of m2; also called trivalent Nb-3C5; homo-trimer Nb-3C5 fused to Fc; source: HEK293 cells, pcDNA 3.4, purified (protein A)
Assay: SPR; LSPR (OpenSPR, Nicoya): E2 protein immobilised on a COOH chip by EDC/NHS, antibodies flowed at 20 uL/min in PBS pH 7.4, 240 s binding, 360 s dissociation, One to One model
Details: both partners purified

Q: Which Kd does the source give for B1 here?
A: The Kd was 10.4 nM.

Target: T4, TriNb-2E8 (alpaca)
T4 construct: VHH Nb-2E8, as the VHH of m1; flexible linker, printed as (GGGGS) x 3; VHH Nb-2E8, second copy, as the VHH of m1; VHH Nb-2E8, third copy, as the VHH of m1; also called trivalent Nb-2E8; homo-trimer Nb-2E8 fused to Fc; source: HEK293 cells, pcDNA 3.4, purified (protein A)
Assay: as above
Details: both partners purified

Q: For B1, which Kd is on record?
A: The Kd was 4.52 nM.

Target: T5, BiNb-2E8 (alpaca)
T5 construct: VHH Nb-2E8, as the VHH of m1; flexible linker, printed as (GGGGS) x 3; VHH Nb-2E8, second copy, as the VHH of m1; Read here as two VHH in tandem on one chain; also called bivalent Nb-2E8; homo-dimer Nb-2E8 fused to Fc; source: HEK293 cells, pcDNA 3.4, purified (protein A)
Assay: as above
Details: both partners purified

Q: How did the Kd turn out when B1 was run?
A: Its Kd is 2.59 nM.

Target: T6, BiNb-3C5 (alpaca)
T6 construct: VHH Nb-3C5, as the VHH of m2; flexible linker, printed as (GGGGS) x 3; VHH Nb-3C5, second copy, as the VHH of m2; In the sandwich ELISA it was coupled with horseradish peroxidase (HRP Conjugation Kit); also called bivalent Nb-3C5; homo-dimer Nb-3C5 fused to Fc; source: HEK293 cells, pcDNA 3.4, purified (protein A)
Assay: as above
Details: both partners purified

Q: With B1 as the binder, how does the Kd read?
A: The Kd was 20.7 nM.

Target: B1
Assay: as above
Details: both partners purified

Q: For B2, which Kd is on record?
A: The Kd was 368 nM.

Q: With B3 as the binder, how does the Kd read?
A: The Kd was 101 nM.

Target: T7, E2 glycoprotein of Chikungunya/human/China/GD134/2010, on virions and in infected Vero cells (Chikungunya virus …)
T7 construct: also called CHIKV virion; CHIKV virus
Assay: […]; antibodies 10 ug/mL, […]
Details: one partner purified

Q: Does B2 bind?
A: Result: binds

Q: Does B3 bind?
A: Result: binds

Target: T1, P10-LKIQVSLQIG
Assay: ELISA; peptide ELISA: each 10-mer peptide coated at 1 ug/mL in carbonate buffer pH 9.6, 2 ug/mL antibodies, HRP anti-6xHis
Details: both partners purified

Q: Does B2 bind?
A: Result: binds

Target: T2, P61-GEEPNYQEEW
Assay: as above
Details: both partners purified

Q: Does B3 bind?
A: Result: binds

Target: B1
Assay: not given
Details: not given

Q: Does B4 bind?
A: Result: binds

Q: Does B5 bind?
A: Result: binds

Q: Does B6 bind?
A: Result: binds

Q: Does B7 bind?
A: Result: binds

Q: Does B8 bind?
A: Result: binds

Q: Does B9 bind?
A: Result: binds

Q: Does B10 bind?
A: Result: binds

Q: Does B11 bind?
A: Result: binds

Q: Does B12 bind?
A: Result: binds

Q: Does B13 bind?
A: Result: binds

Q: Does B14 bind?
A: Result: binds

Q: Does B15 bind?
A: Result: binds

Q: Does B16 bind?
A: Result: binds

Q: Does B17 bind?
A: Result: binds

Q: Does B18 bind?
A: Result: binds

Q: Does B19 bind?
A: Result: binds

Q: Does B20 bind?
A: Result: binds

Q: Does B21 bind?
A: Result: binds
